Assay: label from the status in PepcDB records
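Further: failed if final PepcDB status was selected cloned or expressed and not failed if soluble or beyond.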

Row | Sequence | protein production
1 | MCLCQLSRRKKRPDDSDTQSAPGAVQGTGADYSGAVTASAASTVTHPTVTRHVTASGARIYTIGIRAFEHLGVNVFLVVVGDPQQPSYTALIDAGSSFDFSQQGLLDGLKRVREEYGEAWSWETLSRLVITHPHPDHVGGLPFVRTLTAAPVAAHALAAAVIEEPGRRAEAFKLGADAMLARLGVPEGEYAARLRRRAGNLMSPSGVKVETALQDGDTLDGLFTVLHTPGHDGAQICLRLDEVLLSADHLLPHNSPPLMPGWMLPGSGLGPYLAALDHIETLEGVDLALGSHDEPMPDWRGRVDFLRRRYDDKLRGVLGAASEPQTIYALTCAVNPRLRAAQALLLLDQTAALVEELVVRGELHETREQAADGERWTYQRA | failed
2 | LEKAGDSVEITNEEAVIQYVNPAFENITLYNAREAMNKTVASLLRSPVEDAQLFEEINQTLKSGNTWKGQIRSRKKDGSYWVAQTIIVPVMDDELGRITQHIAIKQDIT | failed
3 | MAILFAVVARGTTILAKHAWCGGNFLEVTEQILAKIPSENNKLTYSHGNYLFHYICQDRIVYLCITDDDFERSRAFNFLNEIKKRFQTTYGSRAQTAPPYAMNSEFSSVLAAQLKHHS | not failed
4 | MNKWAILSLACVPYALLTIVNEDTLEIGGSANIFWKIGLFAPLIGVLFSAGASKTYQRVMLALFNLSYYFVLYIYMIYTF | failed
5 | MRQPPILSEALRLFFPLAALHGAVWPFLWIVIGGYALPFANAVPPSQWHAHEMIFGTYGMALAGFLGSAVPEWTDTKAAAGRTLLCLAGLWLPGRLIGFVGADTWSLLAGFFDLAFLLALSVLIGKAMLVRRTTKHLAFLVWLILFAAAETGVRYAWWMGDLEFAVRCLEAALCIFIVLFSLSAARINVVVINLALDPSGETTPYRPHPGRQHMAGAMVTLYMAAKLLFPESDVCAWLALAAGAAFFDRLAEWFIGRAVFRTEVLLLALGNAFAGAGFLALGATRLGFSVTSAAGLHLLSVGALGCAIMAVFIIAGLRHTGRDLKHLPWQAHAAAALMVMAGLTRILPEFDVAAVLSPYHHGLSAILWAASFGIWLQGFLPFMRAPGTDEAGACG | failed
6 | MTDACCLKGNEDKMVPRFGHGTWIGKAFNDTPEMLHERSLRQEKRLERANELMNDDSLQKLETAAMARSRSVDSAPLGNYTIWKNEYRRGKSFEDMLRLMQDQIIMARVYSGLAKFTNNLALHQEIETQLMKLAWEEESTDIDQEQRVLDSIRDMGQILARAHEQLYECKLVTNKLRAMLQTVEDELENEQTYITFLTQLASKALPDAIHCLTMRLNLEYHLLPLPMRNFPRRENLENPKLYHYALFSDNVLAASVVVNSTVMNAQDPSRHVFHLVTDKLNFGAMSMWFLLNPPGEATIHVQRFEDFTWLNSSYSPVLSQLESAAMKKFYFKTARSESVESGSENLKYRYPKYMSMLNHLRFYIPRIFPKLEKILFVDDDVVVQKDLTPLWSIDLKGKVNENFDPKFCGWAYGMNIFDLKEWKKNNITETYHFWQNLNENRTLWKLGTLPPGLITFYNLTQPLQRKWHLLGLGYDKGIDVKKIERSAVIHYNGHMKPWTEMGISKYQPYWTKYTNFDHPYIFTCRLFE | failed
7 | YIGLVNSFAQKKKLSVNYEQCEPNSELPQRFICKCKIGQTMYGTGSGVTKQEAKQLAAKEAYQKLLKSPPKTAGT | not failed
8 | MQHYFYYIHSKHITPCFIFVDDVLSCLQRLNYQHLPAVSWSCFVSDQIIARVSQSLAKEQSLESLVRQLLEMLEMVTDMESTYLTKVDVEARLQHIMFARNSQKMHIPENFTVSWDYSLCKRAIDENCFFSDEVPDRWGDCIAARNLGITTFLSTPIHLPDGSFYGTLCAASSEKRQWSERAEQVLQLFAGLIAQYIQKEALVEQLREANAALIAQSYTDSLTGLPNRRAIFENLTTLFSLARHLNHKIMIAFIDLDNFKLINDRFGHNSGDLFLIQVGERLNTLQQNGEVIGRLGGDEFLVVSLNNENADISSLRERIQQQIRGEYHLGDVDLYYPGASLGIVEVDPETTDADSALHAADIAMYQEKKHKQKTPFVTHSALHS | failed

— a protein production outcome set (Wang et al. 2014)
